Measurements as given in PMC3043101.

Molecular target: invariant chain (Ii), endogenous in Raji cells (human (endogenous in Raji)) (UniProt P04233)
Experiment: cross-linking; pooled sucrose gradient fractions 7/8 or 14/15 of Raji cell lysate; increasing DSP (up to 200 µg/ml), 2 h on ice; non-reducing SDS-PAGE; western blot for DRα (TAL-1B5) or Ii (Bu43)

- stoichiometry N: 3
Substance: invariant chain (Ii), endogenous in Raji cells (from UniProt P04233 1-296) (natural protein)
